Test [1] addresses CsuA/B (wild type, co-expressed with the CsuC chaperone) (Acinetobacter baumannii). Nature of the test: pull-down.
The target in test [2] is CsuA/B Arg104Cys (in Csu pili) (Acinetobacter baumannii). Nature of the test: optical tweezers force spectroscopy; single pili on E. coli cells mounted on a bead, polystyrene probe bead; extension at a constant speed of 50 nm/s; force of region II (clinch opening).
Test [3] deals with CsuA/B Val2Ala (in Csu pili) (Acinetobacter baumannii). The description is as above.
Test [4] has as its target CsuA/B, major subunit of the Csu pilus rod (wild type, in Csu pili) (Acinetobacter baumannii). The description is as above.
Test [5] deals with FimD (Escherichia coli) (UniProt P30130). The following applies: cited from earlier work.
In test [6] the target is FimD NTD (Escherichia coli) (UniProt P30130). The following applies: cited from earlier work.

pKd: −log10 of the molar value.

One may read the stoichiometry N as a count of units in the complex or per binding partner. “CsuA/B (wild type, co-expressed with the CsuC chaperone) (natural protein)” returned a stoichiometry N in test [1] of 1 to 8.
In test [2], “CsuA/B Arg104Cys (in Csu pili) (natural protein)” registered a clinch opening force of 19.8 pN.
With “CsuA/B Val2Ala (in Csu pili) (natural protein)”, the clinch opening force in test [3] was determined as 15 pN.
In turn, “CsuA/B, major subunit of the Csu pilus rod (wild type, in Csu pili) (natural protein)” displayed a clinch opening force in test [4] of 23 pN.
The pKd is −log10 of the Kd, conventionally taken in molar units. Regarding FimC-FimH complex (from UniProt P31697), the negative logarithm of the Kd (pKd) in test [5] was 7.90; in test [6], 6.02.

The values are drawn from paper PMC9452303.
